Measurements from patent publication US20230018670A1 (WIN THERAPEUTICS, published 2023).
Values joined by “and” are separate entries in the source; they are usually repeats but may differ in a detail not shown here. Equal values may be shown once.

B1: INV721 (bivalent bispecific anti-B7H3 x anti-GD2 antibody) (bispecific antibody, V domains shown)
VL 1: DIQMTQSPSSLSASVGDRVTITCRASQSVSSAVAWYQQKPGKAPKLLIYSASSLYSGVPSRFSGSRSGTDFTLTISSLQPEDFATYYCQQSGRSLYTFGQGTKVEIK
VH 1: EVQLVESGGGLVQPGGSLRLSCAASGFTFSTYYIHWVRQAPGKGLEWVAWIHPSGKYTYYADSVKGRFTISADTSKNTAYLQMNSLRAEDTAVYYCARHYQVGAMDYWGQGTLVTVSS
VL 2: DIQMTQSPSSLSASVGDRVTITCRSSQSLVHRNGNTYLHWYQQKPGKAPKLLIHKVSNRFSGVPSRFSGSGSGTDFTLTISSLQPEDFATYYCSQSTHVPPLTFGQGTKVEIK
VH 2: EVQLVESGGGLVQPGGSLRLSCAASGSSFTGYNMNWVRQAPGKGLEWVAAIDPYYGGTYYADSVKGRFTISADTSKNTAYLQMNSLRAEDTAVYYCASGMEYWGQGTLVTVSS
modifications: 89Zr-radiolabelled in the PET and biodistribution studies. An a-fucosylated version is used in FIG. 66.
notes: 89Zr-labelled in the in vivo PET study; also called I7-01/GD2-5/7; I7-01/GD2-7
B2: Invenra GD2-5 (antibody, V domains shown)
VH: B1 VH 2
VL: B1 VL 2
notes: anti-GD2 antibody; stands here only as a control on B16 cells; also called GD2-05; anti-GD2 monoclonal antibody GD2-5

Experiments:
[1] = biological target: T1, B7 Homolog 3 (B7H3) on B78 melanoma tumor cells; assay: cell binding, RFU, B7H3 B78 cells (GD2 and human B7H3); both arms can bind
T1 construct: whole, on cells; In the PET study, tumours that were B7H3-positive and GD2-negative were also used; also called CD276; Cluster of Differentiation 276

[2] = biological target: T2, B7H3 (antigen of the 'B7H3 Octet' value); assay: Octet, monovalent affinity of the B7H3 arm; construct measured and form of B7H3 not given
T2 construct: antigen of the Octet measurement
T2 sequence (Q5ZPR3 whole entry, species assumed, looked up): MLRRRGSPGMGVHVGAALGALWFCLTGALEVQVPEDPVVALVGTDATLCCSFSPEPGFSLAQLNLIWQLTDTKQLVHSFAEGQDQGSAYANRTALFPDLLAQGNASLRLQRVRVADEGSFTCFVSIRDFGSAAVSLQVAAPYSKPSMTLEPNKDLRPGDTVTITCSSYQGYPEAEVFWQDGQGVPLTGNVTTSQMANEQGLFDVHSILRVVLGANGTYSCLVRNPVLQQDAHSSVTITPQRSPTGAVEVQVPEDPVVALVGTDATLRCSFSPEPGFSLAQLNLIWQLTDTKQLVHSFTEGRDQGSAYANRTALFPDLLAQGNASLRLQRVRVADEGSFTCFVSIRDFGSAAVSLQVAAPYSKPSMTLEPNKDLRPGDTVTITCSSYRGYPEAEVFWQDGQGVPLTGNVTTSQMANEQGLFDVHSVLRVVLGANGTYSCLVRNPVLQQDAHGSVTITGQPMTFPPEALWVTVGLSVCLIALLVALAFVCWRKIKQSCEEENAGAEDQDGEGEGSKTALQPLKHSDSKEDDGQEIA

[3] = biological target: T3, mB7H3 (endogenous mouse B7H3 on B16 and B78 cells) (mouse, UniProt Q8VE98); assay: flow cytometry on B16 cells (no GD2, mouse B7H3), GAH PE; anti-GD2 antibody as control
T3 construct: B78 also carries GD2; also called murine B7H3
T3 sequence (receptor, looked up): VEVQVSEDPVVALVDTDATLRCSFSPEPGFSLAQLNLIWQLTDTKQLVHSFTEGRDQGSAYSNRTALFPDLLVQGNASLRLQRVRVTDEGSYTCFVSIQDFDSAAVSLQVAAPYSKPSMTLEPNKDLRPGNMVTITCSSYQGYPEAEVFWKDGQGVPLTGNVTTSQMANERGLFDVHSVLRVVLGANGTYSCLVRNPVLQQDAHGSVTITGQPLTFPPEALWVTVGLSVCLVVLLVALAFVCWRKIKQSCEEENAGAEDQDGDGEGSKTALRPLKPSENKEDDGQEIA

Binder | EC50 [1] | Kd [2] [nM] | binding result [3]
B1 | 0.35 nM and 0.357 nM | 2.4 | 
B2 |  |  | no binding (tested: 1 ug antibody per million cells)
